These results are taken from IntAct's records for PubMed 15171681.

To fix the notation:
B1: Protein S100-A1 (Homo sapiens), P23297 (parent)
chain: MGSELETAMETLINVFHAHSGKEGDKYKLSKKELKELLQTELSGFLDAQKDVDAVDKVMKELDENGDGEVDFQEYVVLVAALTVACNNFFWENS
partner: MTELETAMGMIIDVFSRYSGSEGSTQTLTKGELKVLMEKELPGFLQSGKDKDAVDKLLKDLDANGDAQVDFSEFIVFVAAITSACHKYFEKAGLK
B2: Protein S100-P (Homo sapiens), P25815 (parent)
chain: B1 partner

The first assay covers variants of B1. Particulars: with S100P.
Turning to F16A, the “effect of a mutation on the interaction” value was “disrupting interaction”. For the variant L12H;F16A;F72L, the “effect of a mutation on the interaction” value is on record as “disrupting interaction”.

A further assay covers variants of B2. Particulars: with S100A1, P23297.
In the case of MTELETAMGMIIDVFSRYSGSEGSTQTLTKGELKVLMEKELPGFLQSGKDKDAVDKLLKDLDANGDAQVDFSEFGVFVAAITSACHKYFEKAGLK [I75G], the “effect of a mutation on the interaction” value is given as “disrupting interaction”. Take MTELETAMGMAADVFSRYSGSEGSTQTLTKGELKVLMEKELPGFLQSGKDKDAVDKLLKDLDANGDAQVDFSEFIVFVAAITSACHKYFEKAGLK [I11A;I12A]: the “effect of a mutation on the interaction” value is recorded as “disrupting interaction”. The same measure, in the same setting: for MTELETAMGMIIDVFSRYSGSEGSTQTLTKGELKVLMEKELPGFLQSGKDKDAVDKLLKDLDANGDAQVDASEFIVFVAAITSACHKYFEKAGLK [F71A] the value was “disrupting interaction”; for MTELETAMGMIIDVFSRYSGSEGSTQTLTKGELKVLMEKELPGFLQSGKDKDAVDKLLKDLDANGDAQVDFSEVIVFVAAITSACHKYFEKAGLK [F74V], “disrupting interaction”. Same read-out and setting: for MTELETAMGMIIDVFSRYSGSEGSTQTLTKGELKVLMEKELPGFLQSGKDKDAVDKLLKDLDANGDAQVDFSEGIVFVAAITSACHKYFEKAGLK [F74G] the value was “disrupting interaction”; for MTELETAMGMIIDVASRYSGSEGSTQTLTKGELKVLMEKELPGFLQSGKDKDAVDKLLKDLDANGDAQVDFSEFIVFVAAITSACHKYFEKAGLK [F15A], “disrupting interaction”. On to MTELETAMGMIIDVFSRYSGSEGSTQTLTKGELKVLMEKELPGFLQSGKDKDAVDKLLKDLDANGDAQVDFSEFGGFVAAITSACHKYFEKAGLK [I75G;V76G], for which the “effect of a mutation on the interaction” value was “decreasing interaction”.
